Measurements published in the supplement of paper PMC7877785.
± gives the uncertainty stated by the source.

Assay: self-splicing fitness, log relative to wild type (ln ratio); higher = more splicing; Tetrahymena group I intron in knt gene, E. coli kanamycin selection, DiMSum; sequences stand for … in CUCUCU…GGAGGGAAAAGUUAUCAGGCAUGCACCUGGUAGCUAGUCUUUAAACCAAUAGAUUGCAUCGGUUUAAAAGGCAAGACCGUCAAAUUGCGGGAAAGGGGUCAACAGCCGUUCAGUACCAAGUCUCAGGGGAAACUUUGAGAUGGCCUUGCAAAGGGUAUGGUAAUAAGCUGACGGACAUGGUCCUAACCACGCAGCCAAGUCCUAAGUCAACAGAUCUUCUGUUGAUAUGGAUGCAGUUCACAGACUAAAUGUCGGUCGGGGAAGAUGUAUUCUUCUCAUAAGAUAUAGUCGGACCUCUCCUUAAUGGGAGCUAGCGGAUGAAGUGAUGCAACACUGGAGCCGCUGGGAACUAAUUUGUAUGCGAAAGUAUAUUGAUUAGUUUUGGAGUACUCGUGGUCG
Method in brief: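 Fitness was computed with DiMSum as the error-weighted combination of replicate fold changes, kanamycin versus none, each normalised to wild type. The library randomised all eight intron nucleotides of the P1ex region, with the intron placed in the knt kanamycin-resistance gene on pET-22b(+) in E. coli BL21(DE3). Six replicate transformations were grown overnight at 37°C or 30°C on LB agar with or without 25 μg/mL kanamycin, plus 100 μg/mL carbenicillin, 50 μM IPTG and 0.2% rhamnose. Pooled colonies were amplicon-sequenced on an Illumina HiSeq 2500.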

Sequence	self-splicing fitness (ln) (37 °C)	self-splicing fitness (ln) (30 °C)
ACUUAGCAAUAUUACGUCGC	-1.22 ± 0.26	–
ACUUAGCAAUAUUACGUGCA	-0.535 ± 0.072	-1.1 ± 0.055
ACUUAGCAAUAUUACGUUCA	-0.694 ± 0.2	-0.344 ± 0.19
ACUUAGCAAUAUUACGUUCU	-0.195 ± 0.087	-1.28 ± 0.064
ACUUAGCAAUAUUACGUUUA	-1.07 ± 0.18	-1.5 ± 0.17
AGAAAGCAAUAUUACGAAAC	-2.93 ± 0.24	-3.2 ± 0.25
AGAAAGCAAUAUUACGAAAU	-1.91 ± 0.15	-1.52 ± 0.1
AGAAAGCAAUAUUACGAAGU	-2.15 ± 0.21	-3.61 ± 0.27
AGAAAGCAAUAUUACGACAU	0.0923 ± 0.032	0.0508 ± 0.012
AGAAAGCAAUAUUACGACCU	0.265 ± 0.11	0.52 ± 0.099
AGAAAGCAAUAUUACGACGU	0.35 ± 0.1	0.0909 ± 0.1
AGAAAGCAAUAUUACGACUU	0.222 ± 0.1	-0.252 ± 0.072
AGAAAGCAAUAUUACGAGCA	-0.262 ± 0.16	-0.695 ± 0.11
AGAAAGCAAUAUUACGAGUA	-1.13 ± 0.086	-2.18 ± 0.097
AGAAAGCAAUAUUACGAUAG	-1.02 ± 0.16	-3.4 ± 0.38
AGAAAGCAAUAUUACGAUCU	-0.99 ± 0.11	-2.88 ± 0.11
AGAAAGCAAUAUUACGCACC	0.0714 ± 0.12	0.221 ± 0.098
AGAAAGCAAUAUUACGCGAU	-1.63 ± 0.13	-3.37 ± 0.17
AGAAAGCAAUAUUACGCGGG	-2.25 ± 0.26	-2.43 ± 0.24
AGAAAGCAAUAUUACGGACU	0.112 ± 0.089	-0.691 ± 0.079
AGAAAGCAAUAUUACGGCCC	-0.169 ± 0.27	0.946 ± 0.29
AGAAAGCAAUAUUACGGGUG	-1.36 ± 0.14	-1.41 ± 0.089
AGAAAGCAAUAUUACGGUCA	0.187 ± 0.091	-0.253 ± 0.078
AGAAAGCAAUAUUACGUAGA	-1.52 ± 0.14	-1.52 ± 0.12
AGAAAGCAAUAUUACGUCAG	-0.978 ± 0.11	-1.94 ± 0.093

Sequence	self-splicing fitness (ln) (37 °C)	self-splicing fitness (ln) (30 °C)
AGAAAGCAAUAUUACGUCCA	-0.056 ± 0.13	-1.06 ± 0.1
AGAAAGCAAUAUUACGUCCG	0.226 ± 0.14	-0.86 ± 0.096
AGAAAGCAAUAUUACGUCGU	-0.452 ± 0.081	-1.9 ± 0.059
AGAAAGCAAUAUUACGUCUG	-0.1 ± 0.063	-0.808 ± 0.043
AGACAGCAAUAUUACGAACA	-0.502 ± 0.099	-1.33 ± 0.1
AGACAGCAAUAUUACGACAA	-1.02 ± 0.12	-1.34 ± 0.12
AGACAGCAAUAUUACGACUG	-0.387 ± 0.084	-1.14 ± 0.078
AGACAGCAAUAUUACGAGGG	-2.61 ± 0.21	-4.15 ± 0.16
AGACAGCAAUAUUACGAUAG	-1.56 ± 0.26	-3.16 ± 0.2
AGACAGCAAUAUUACGCAAA	-1.37 ± 0.14	-2.66 ± 0.18
AGACAGCAAUAUUACGCCGA	-0.863 ± 0.094	-2.06 ± 0.089
AGACAGCAAUAUUACGCGCU	-1.63 ± 0.13	-2.26 ± 0.12
AGACAGCAAUAUUACGCGGG	-2.62 ± 0.18	-3.46 ± 0.2
AGACAGCAAUAUUACGCGGU	-2.4 ± 0.22	-3.61 ± 0.21
AGACAGCAAUAUUACGCGUG	-0.597 ± 0.086	-1.91 ± 0.075
AGACAGCAAUAUUACGCUAC	-2.61 ± 0.33	-2.43 ± 0.2
AGACAGCAAUAUUACGCUUC	-1.86 ± 0.27	-3.78 ± 0.28
AGACAGCAAUAUUACGGACA	-0.425 ± 0.12	-1.09 ± 0.1
AGACAGCAAUAUUACGGCAG	-1.09 ± 0.12	-3.3 ± 0.15
AGACAGCAAUAUUACGGCUC	-1.02 ± 0.13	-2.59 ± 0.15
AGACAGCAAUAUUACGGGCG	-0.459 ± 0.12	-0.665 ± 0.1
AGACAGCAAUAUUACGGUUA	-0.109 ± 0.079	-0.253 ± 0.082
AGACAGCAAUAUUACGUAUG	-0.801 ± 0.12	-3.13 ± 0.15
AGACAGCAAUAUUACGUUAU	-2.06 ± 0.12	-2.29 ± 0.1
AGAGAGCAAUAUUACGAAAU	-1.89 ± 0.24	-3.71 ± 0.33

Sequence	self-splicing fitness (ln) (37 °C)	self-splicing fitness (ln) (30 °C)
AGAGAGCAAUAUUACGAAUG	-3.27 ± 0.47	-2.07 ± 0.22
AGAGAGCAAUAUUACGAAUU	-2.95 ± 0.32	-1.19 ± 0.2
AGAGAGCAAUAUUACGAGGA	-2.21 ± 0.34	-2.71 ± 0.4
AGAGAGCAAUAUUACGAGGU	-1.87 ± 0.32	-2.98 ± 0.2
AGAGAGCAAUAUUACGAGUU	-2.41 ± 0.2	-4.21 ± 0.3
AGAGAGCAAUAUUACGAUAU	-2.2 ± 0.43	-2.21 ± 0.47
AGAGAGCAAUAUUACGCACG	–	-2.18 ± 0.38
AGAGAGCAAUAUUACGCAGU	-2.32 ± 0.35	–
AGAGAGCAAUAUUACGCAUG	-1.9 ± 0.35	-3.23 ± 0.22
AGAGAGCAAUAUUACGCCGG	–	-1.82 ± 0.25
AGAGAGCAAUAUUACGCGCA	-1.74 ± 0.14	-3 ± 0.36
AGAGAGCAAUAUUACGCUAA	-0.209 ± 0.21	–
AGAGAGCAAUAUUACGGAGU	-3.3 ± 0.47	-3.87 ± 0.4
AGAGAGCAAUAUUACGGAUU	-2.57 ± 0.34	-2.87 ± 0.2
AGAGAGCAAUAUUACGGCAA	-1.48 ± 0.4	–
AGAGAGCAAUAUUACGGCGG	–	-2.77 ± 0.48
AGAGAGCAAUAUUACGGCUA	-2.19 ± 0.39	-1.86 ± 0.46
AGAGAGCAAUAUUACGGGAA	-2.62 ± 0.28	-4.12 ± 0.35
AGAGAGCAAUAUUACGGUAG	-2.18 ± 0.19	-1.46 ± 0.12
AGAGAGCAAUAUUACGUAAC	-3.26 ± 0.31	–
AGAGAGCAAUAUUACGUCCU	-0.89 ± 0.13	-2.25 ± 0.12
AGAGAGCAAUAUUACGUCUU	-2 ± 0.18	-2.88 ± 0.19
AGAGAGCAAUAUUACGUUAG	-2.45 ± 0.29	-2.77 ± 0.19
AGAGAGCAAUAUUACGUUUU	–	-3.68 ± 0.35
AGAUAGCAAUAUUACGACUC	-0.0202 ± 0.21	-0.641 ± 0.12

Sequence	self-splicing fitness (ln) (37 °C)	self-splicing fitness (ln) (30 °C)
AGAUAGCAAUAUUACGAGGA	-2.65 ± 0.48	-2.21 ± 0.21
AGAUAGCAAUAUUACGAGGG	-1.77 ± 0.33	-3.73 ± 0.41
AGAUAGCAAUAUUACGAUCC	-0.656 ± 0.39	-1.68 ± 0.38
AGAUAGCAAUAUUACGAUUA	-0.852 ± 0.14	-0.68 ± 0.15
AGAUAGCAAUAUUACGCCAA	-3.38 ± 0.37	-2.98 ± 0.38
AGAUAGCAAUAUUACGCCAU	-1.27 ± 0.13	-2.38 ± 0.12
AGAUAGCAAUAUUACGCCUA	-1.29 ± 0.13	-1.21 ± 0.099
AGAUAGCAAUAUUACGCGUG	-1.01 ± 0.12	-1.44 ± 0.1
AGAUAGCAAUAUUACGCUGA	-0.681 ± 0.17	-1.79 ± 0.14
AGAUAGCAAUAUUACGGAAG	-2.02 ± 0.19	-3.57 ± 0.22
AGAUAGCAAUAUUACGGAUA	-1.23 ± 0.23	-4.2 ± 0.42
AGAUAGCAAUAUUACGGCUG	-0.792 ± 0.2	-0.377 ± 0.12
AGAUAGCAAUAUUACGGGAA	-2.7 ± 0.25	-3 ± 0.27
AGAUAGCAAUAUUACGGGCG	0.433 ± 0.15	-1.16 ± 0.14
AGAUAGCAAUAUUACGGUAU	-0.614 ± 0.1	-1.43 ± 0.098
AGAUAGCAAUAUUACGGUCG	-0.324 ± 0.15	-0.105 ± 0.12
AGAUAGCAAUAUUACGGUUU	-0.341 ± 0.076	-0.692 ± 0.055
AGAUAGCAAUAUUACGUACU	-0.0062 ± 0.15	-0.357 ± 0.15
AGAUAGCAAUAUUACGUAGA	-1.77 ± 0.16	-3.03 ± 0.15
AGAUAGCAAUAUUACGUGGC	-2.86 ± 0.32	-3.18 ± 0.23
AGAUAGCAAUAUUACGUUUU	-1.68 ± 0.1	-2.35 ± 0.09
AGCAAGCAAUAUUACGAAAA	-2.39 ± 0.18	-3.39 ± 0.19
AGCAAGCAAUAUUACGACCA	-0.178 ± 0.12	-0.697 ± 0.09
